The target in assay [1] is T1, human c-fms, full length, on cells (human, UniProt P07333 20-972). The assay can be described thus: cell-based or functional assay.
In assay [2] the target is T1, human c-fms, full length, on cells. In words: cell-based or functional assay. This is another data set of the same source.
Assay [3] deals with T2, monomeric human c-fms (residues 1-512)-pHis (human, UniProt P07333 20-512).
T2 construct: Construct stated as residues 1-512; signal stated as amino acids 1-19 and left out; also called human c-fms (1-512).pHIS; monomeric c-fms
The assay can be described thus: Biacore, low resolution; hybridoma mAb captured on anti-human IgG, monomeric c-fms-pHis analyte at 125 nM. The protocol: Anti-human IgG was immobilized on all four flow cells of a sensor chip using amine coupling. Crude hybridoma samples were diluted into halves and captured on the anti-IgG surface. […] Sequence lineage analyses were also performed on the 29 hybridomas (see, FIG. 2).

The target of assay [4] is T3, cynomolgus monkey c-fms on primary bone marrow cells (cynomolgus monkey). In words: cell-based or functional assay.
In assay [5] the target is T3, cynomolgus monkey c-fms on primary bone …. The assay can be described thus: cell-based or functional assay. This is another data set of the same source.

Changes are numbered by the printed parent chain. Like-named read-outs stand apart in the source and are kept apart here. A value given as a limit tells only on which side of the number the result lay.

T1 sequence (P07333 20-972): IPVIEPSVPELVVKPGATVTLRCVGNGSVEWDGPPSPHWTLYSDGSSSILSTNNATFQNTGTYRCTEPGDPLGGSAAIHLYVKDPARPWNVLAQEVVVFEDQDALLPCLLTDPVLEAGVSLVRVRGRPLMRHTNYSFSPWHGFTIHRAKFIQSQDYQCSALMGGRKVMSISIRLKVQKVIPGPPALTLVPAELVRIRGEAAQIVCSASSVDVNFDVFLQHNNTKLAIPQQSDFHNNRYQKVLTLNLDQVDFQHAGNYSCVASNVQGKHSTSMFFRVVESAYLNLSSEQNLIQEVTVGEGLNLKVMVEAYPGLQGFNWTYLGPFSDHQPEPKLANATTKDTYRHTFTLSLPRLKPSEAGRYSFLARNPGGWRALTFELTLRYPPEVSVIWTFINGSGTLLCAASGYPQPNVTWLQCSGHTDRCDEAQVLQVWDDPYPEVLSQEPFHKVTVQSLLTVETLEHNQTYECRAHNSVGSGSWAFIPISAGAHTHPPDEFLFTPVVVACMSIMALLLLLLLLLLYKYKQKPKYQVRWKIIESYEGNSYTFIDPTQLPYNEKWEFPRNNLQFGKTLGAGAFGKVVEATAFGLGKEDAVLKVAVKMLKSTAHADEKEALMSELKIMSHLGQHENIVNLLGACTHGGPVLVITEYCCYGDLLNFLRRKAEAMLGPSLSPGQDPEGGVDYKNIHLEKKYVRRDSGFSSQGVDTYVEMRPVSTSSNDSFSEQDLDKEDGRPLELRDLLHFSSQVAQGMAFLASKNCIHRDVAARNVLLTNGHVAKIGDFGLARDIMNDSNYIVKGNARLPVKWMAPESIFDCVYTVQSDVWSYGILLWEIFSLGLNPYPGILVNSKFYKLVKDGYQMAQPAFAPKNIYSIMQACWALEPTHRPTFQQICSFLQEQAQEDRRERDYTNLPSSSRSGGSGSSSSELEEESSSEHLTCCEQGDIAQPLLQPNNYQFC
T2 sequence (P07333 20-512): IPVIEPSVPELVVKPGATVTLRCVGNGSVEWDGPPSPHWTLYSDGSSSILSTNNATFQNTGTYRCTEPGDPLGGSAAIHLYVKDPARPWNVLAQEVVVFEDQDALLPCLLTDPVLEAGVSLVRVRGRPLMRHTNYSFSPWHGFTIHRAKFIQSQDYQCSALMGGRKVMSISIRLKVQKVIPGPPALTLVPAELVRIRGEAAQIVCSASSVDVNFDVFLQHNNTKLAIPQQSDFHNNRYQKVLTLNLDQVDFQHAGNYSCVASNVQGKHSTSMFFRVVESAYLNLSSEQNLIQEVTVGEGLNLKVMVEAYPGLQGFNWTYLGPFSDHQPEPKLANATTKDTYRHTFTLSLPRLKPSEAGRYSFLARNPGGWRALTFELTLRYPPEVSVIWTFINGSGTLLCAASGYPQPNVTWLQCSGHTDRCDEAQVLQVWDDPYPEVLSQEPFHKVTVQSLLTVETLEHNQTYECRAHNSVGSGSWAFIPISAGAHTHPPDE

B1: anti-c-fms hybridoma antibody 2.508 (antibody, IgG2, V domains shown)
VH: QVQLVQSGAEVKKPGASVKVSCKVSGYTLTELSMHWVRQAPGKGLEWMGGFDPEDGETIYAQKFQGRVTMTEDTSTDTAYMELSSLRSEDTAVYYCATAGLEIRWFDPWGQGTLVTVSS
VL: DIVMTQSPLSLPVTPGEPASISCRSSQSLLHSNGYNYLDWYLQKPGQSPQFLIYLGSIRASGVPDRFSGSGSGTDFALTISRVEAEDVGVYYCMQALQTPRTFGQGTKVEIK
notes: Hybridoma IgG2 (cohort 2); also called 2.508.1; 2.508.2
On to B1, for which, in assay [1], the “AML-5 bioassay IC50” value was 0.02 nM and the “Human CD14+ monocytes bioassay IC50” value is 0.133 nM. In addition, in assay [2], the “AML-5 bioassay IC50” value came out at 5 ng/mL and the “Human CD14+ monocytes bioassay IC50” value came out at 20 ng/mL. Also, in assay [3], the Kd (in general, the free concentration of one partner at which half of the binding sites on the other are occupied at equilibrium, for simple one-to-one binding) is 0.7 nM; the koff (in general, the first-order rate constant of dissociation) is 5.28e-05 s⁻¹; the kon (usually a measure of how fast the partners come together) was found to be 74900 M⁻¹ s⁻¹.

B2: anti-c-fms hybridoma antibody 2.369 (antibody, IgG2, V domains shown)
VH: QVQLVQSGAEVKKPGASVKVSCKVSGYTLTELSMHWVRQAPGKGLEWMGGFDPEDGETIYAQKFQGRVTMTEDTSTDTAYMELSSLRSEDTAVYYCATRAGTTLAYYYYAMDVWGQGTTVTVSS
VL: DIQMTQSPSSLSASVGDRVTITCRASQSISRYLNWYQQKPGKAPNLLIHAASSLQSGVPSRFSGSGSGTDFTLTISSLQPEDFATYYCQQSYITPPSFGQGTKLEIK
notes: Hybridoma IgG2 (cohort 2); also called 2.369.3
B2: in assay [3], the Kd came to 14 nM, the koff was 0.00138 s⁻¹ and the kon came to 100000 M⁻¹ s⁻¹.

B3: anti-c-fms hybridoma antibody 1.64 (antibody, IgG1, V domains shown)
VH: EVQLVESGGGLVQPGGSLRLSCAASGFTFSSYDMHWVRQATGKGLEWVSGIGTAGDTYYPGSVKGRFNISRENAKNSLYLQMNSLRAGDTAVYYCAREGSWYGFDYWGQGTLVTVSS
VL: EIVLTQSPGTLSLSPGERATLSCRASQSVSSGYLAYLAWYQQKPGQAPRLLIYGASSTATGIPDRFSGSGSGTDFTLTISRLEPEDFAVYYCQQYGSSPITFGQGTRLEIK
notes: Hybridoma IgG1 (cohort 1); also called 1.64.1; 1.64.2
Consider B3, for which, in assay [1], the “AML-5 bioassay IC50” value worked out at 0.004 nM and the “Human CD14+ monocytes bioassay IC50” value was 0.013 nM. In addition, in assay [2], the “AML-5 bioassay IC50” value is 0.6 ng/mL and the “Human CD14+ monocytes bioassay IC50” value was determined as 2 ng/mL. In assay [3], binding was put at a Kd of 2.5 nM, the off-rate (koff) came to 0.00064 s⁻¹ and the kon amounted to 255000 M⁻¹ s⁻¹.

B4: anti-c-fms hybridoma antibody 1.13 (antibody, V domains shown)
VH: QVQLQESGPGLVKPSETLSLTCTVSGGSVSSGGYYWSWIRQPPGKGLEWIGYIYYSGSTNYNPSLKSRVTISVDTSKNQFSLKLSSVTAADTAVYYCAAGIAATGTLFDCWGQGTLVTVSS
VL: DIQMTQSPSSLSASVGDRVTITCQASQDISNYLNWYQQKPGKAPKLLIYDASNLETGVPSRFSGSGSGTDFTFIISSLQPEDIATYYCQQFDNLPPTFGGGTKVESK
notes: Hybridoma IgG1 (cohort 1)
Turning to B4, in assay [3], binding was characterised by a dissociation constant (Kd) of 6.4 nM, the koff turned out to be 0.000773 s⁻¹ and the kon came out at 120000 M⁻¹ s⁻¹.

B5: anti-c-fms hybridoma antibody 1.131 (antibody, IgG1, V domains shown)
VH: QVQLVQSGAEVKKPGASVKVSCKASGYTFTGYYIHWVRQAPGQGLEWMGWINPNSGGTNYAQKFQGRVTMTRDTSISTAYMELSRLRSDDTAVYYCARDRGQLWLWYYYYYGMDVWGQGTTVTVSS
VL: DNVMTQTPLSLSVTPGQPASISCKSSQSLLHSDGKTYLYWYLQKPGQPPQLLIYEASNRFSGVPDRFSGSGSGTDFTLKISRVEAEDVGVYYCMQSIQLPLTFGGGTKVEIK
notes: Hybridoma IgG1 (cohort 1); also called 1.131.1
In assay [3], B5 had a Kd of 41 nM, a koff of 0.00215 s⁻¹ and a kon of 53100 M⁻¹ s⁻¹.

B6: anti-c-fms hybridoma antibody 1.72 (antibody, IgG1, V domains shown)
VH: EVQLVESGGGLVEPGGSLRLSCAASGFTFSTAWMSWVRQAPGKGLEWVGRIKSKTDGGTTDYAAPVKGRFTISRDDSKNTLYLQMNSLKNEDTAVYYCTTEGPYSNYGYYYYGVDVWGQGTTVTVSS
VL: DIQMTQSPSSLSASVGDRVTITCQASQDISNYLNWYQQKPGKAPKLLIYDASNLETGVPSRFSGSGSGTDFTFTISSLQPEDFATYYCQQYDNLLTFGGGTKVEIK
notes: Hybridoma IgG1 (cohort 1); also called 1.72.2
Take B6: in assay [3], the Kd turned out to be 5.5 nM, the koff is 0.000568 s⁻¹ and the kon is 103000 M⁻¹ s⁻¹.

B7: anti-c-fms hybridoma antibody 2.65 (antibody, IgG2, V domains shown)
VH: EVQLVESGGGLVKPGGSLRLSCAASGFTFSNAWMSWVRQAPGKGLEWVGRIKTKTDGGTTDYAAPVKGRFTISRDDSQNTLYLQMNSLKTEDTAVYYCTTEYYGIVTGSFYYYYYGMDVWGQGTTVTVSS
VL: DIQMTQSPSSLSASVGDRVTITCQASQDINNYLNWYQQKPGKAPKLLIYDASNLETGVPSRFSGSGSGTDFTFTISSLQPEDIATYYCQQYDDLLTFGGGTKVEIK
notes: Hybridoma IgG2 (cohort 2); also called 2.65.2
In the case of B7, in assay [3], the Kd was determined as 9.5 nM, the koff was 0.0016 s⁻¹ and the kon was 168000 M⁻¹ s⁻¹.

B8: anti-c-fms hybridoma antibody 1.16 (antibody, IgG1, V domains shown)
VH: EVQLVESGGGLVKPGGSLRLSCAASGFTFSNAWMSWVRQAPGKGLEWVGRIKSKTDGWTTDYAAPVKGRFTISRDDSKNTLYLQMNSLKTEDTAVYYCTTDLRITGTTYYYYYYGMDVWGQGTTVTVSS
VL: B7 VL with N30S, L46F, D93N, L95I, G99Q, K102R, V103L
notes: Hybridoma IgG1 (cohort 1)
In assay [3], B8 gave a Kd of 23 nM, a koff of 0.00296 s⁻¹ and an on-rate (kon) of 129000 M⁻¹ s⁻¹.

B9: anti-c-fms hybridoma antibody 2.550 (antibody, IgG2, V domains shown)
VH: QVQLVQSGAEVKKPGASVKVSCKASGYTLTSYGISWVRQAPGQGLEWMGWISAYNGNPNYAQKFQGRVTMTTDTSTSTAYMELRSLRSDDTAVYYCARDQGLLGFGELEGLFDYWGQGTLVTVSS
VL: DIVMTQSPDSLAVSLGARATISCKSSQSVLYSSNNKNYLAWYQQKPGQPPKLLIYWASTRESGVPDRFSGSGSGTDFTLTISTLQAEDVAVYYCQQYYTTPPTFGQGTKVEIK
notes: Hybridoma IgG2 (cohort 2)
Take B9: in assay [3], binding was characterised by a dissociation constant (Kd) of 24 nM, the koff was found to be 0.00724 s⁻¹ and the kon turned out to be 300000 M⁻¹ s⁻¹.

B10: anti-c-fms hybridoma antibody 2.131 (antibody, IgG2, V domains shown)
VH: QVQLQESGPGLVKPSETLSLTCTVSGGSISNYYWSWIRQSAGKGLEWIGRIYTSGSTHYNPSLKSRIIMSVDTSKNQFSLKLSSVTAADTAVYYCARDRVFYGMDVWGQGTTVTVSS
VL: DIQMTQSPSSLSASVGDRVTITCRASQGFSNYLAWYQQKPGKVPKLLIYAASTLQSGVPSRFSGSGSGTDFTLTISSLQPEDVATYYCQKYNSAPLTFGGGTKVEIK
notes: Hybridoma IgG2 (cohort 2); also called 2.131.2
Turning to B10, in assay [3], the Kd is no more than 0.2 nM, the koff was no more than 1e-05 s⁻¹ and the on-rate constant (kon) was determined as 43000 M⁻¹ s⁻¹.

B11: anti-c-fms hybridoma antibody 1.66 (antibody, IgG1, V domains shown)
VH: QVQLVESGGGVVQPGRSLRLSCAASGFTFSSYGMHWVRQAPGKGLEWVAVIWYDGSNEYYADSVKGRFTISRDNSKSTLYLQMNSLRAEDTAVYYCAHSSGNYYDMDVWGQGTTVTVSS
VL: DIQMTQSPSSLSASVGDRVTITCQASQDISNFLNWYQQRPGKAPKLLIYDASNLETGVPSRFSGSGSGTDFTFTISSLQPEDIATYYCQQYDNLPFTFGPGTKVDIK
notes: Hybridoma IgG1 (cohort 1); also called 1.66.1; 1.66.2
For B11, in assay [1], the “AML-5 bioassay IC50” value stood at 0.027 nM and the “Human CD14+ monocytes bioassay IC50” value was found to be 0.067 nM. Also, the “Cynomolgus bone marrow bioassay IC50” value in assay [4] is 0.047 nM. For the same molecule, in assay [2], the “AML-5 bioassay IC50” value worked out at 4 ng/mL and the “Human CD14+ monocytes bioassay IC50” value is 10 ng/mL. The “Cynomolgus bone marrow bioassay IC50” value in assay [5] came out at 7 ng/mL. In assay [3], this molecule returned a Kd of 23 nM, a koff of 0.0055 s⁻¹ and a kon of 239000 M⁻¹ s⁻¹.

B12: anti-c-fms hybridoma antibody 1.90 (antibody, IgG1, V domains shown)
VH: B11 VH with E58K, S77N, H98S, G101S, Y103F
VL: B4 VL with I74T, Q90R, F91Y, N93D, P96I, G100Q, K103R, V104L, S106I
notes: Hybridoma IgG1 (cohort 1); also called 1.90.2
With B12, in assay [3], the Kd stood at 10 nM, the koff is 0.002 s⁻¹ and the kon was found to be 193000 M⁻¹ s⁻¹.

B13: anti-c-fms hybridoma antibody 2.534 (antibody, IgG2, V domains shown)
VH: QVQLQESGPGLVKPSQTLSLTCTVSGGSISSGGYYWSWIRQHPGKGLEWIGYISYSGDTYYNPSLKSRLTISVDTSKHQFSLRLSSVTSADTAVYYCASLDLYGDYFDYWGQGTLVTVSS
VL: EIVLTQSPDFQSVTPKEKVTITCRASQYIGSSLHWYQQTPDQSPKLLINYVSQSFSGVPSRFSGSGSGTDFTLTINSLEAEDAATYYCHQSSSLPFTFGPGTKVDIK
notes: Hybridoma IgG2 (cohort 2); also called 2.534.1; 2.534.2
Regarding B13, in assay [1], the “AML-5 bioassay IC50” value worked out at 0.02 nM and the “Human CD14+ monocytes bioassay IC50” value came out at 0.047 nM. For the same molecule, in assay [2], the “AML-5 bioassay IC50” value is 3 ng/mL and the “Human CD14+ monocytes bioassay IC50” value was determined as 7 ng/mL. In assay [3], this molecule yielded a Kd of 43 nM, a koff of 0.015 s⁻¹ and an on-rate (kon) of 345000 M⁻¹ s⁻¹.

B14: anti-c-fms hybridoma antibody 1.33.1.1 (antibody, IgG1, V domains shown)
VH: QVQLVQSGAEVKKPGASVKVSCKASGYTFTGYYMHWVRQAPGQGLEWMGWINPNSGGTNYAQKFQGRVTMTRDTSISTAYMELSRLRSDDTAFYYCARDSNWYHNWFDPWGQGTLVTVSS
VL: DIQMTQSPSSLSASVGDRVTITCRASQSISDYLNWYQQKPGKAPNLLIYAASSLQSGVPSRFSGSGSGTDFTLTISSLQPEDFATYFCQQTYSDPFTFGPGTKVDIK
notes: Hybridoma IgG1 (cohort 1)
In assay [3], B14 displayed a Kd of 1.2 nM, a koff of 0.000116 s⁻¹ and a kon of 98900 M⁻¹ s⁻¹.

B15: anti-c-fms hybridoma antibody 1.42 (antibody, IgG1, V domains shown)
VH: QVQLVQSGAEVKKPGASVKVSCKASGYTFTSYGISWVRQAPGQGLEWMGWISAYNGNTNYAQKLQGRVTMTTDTSTSTAYMELRSLRSDDTAVYYCARESWFGEVFFDYWGQGTLVTVSS
VL: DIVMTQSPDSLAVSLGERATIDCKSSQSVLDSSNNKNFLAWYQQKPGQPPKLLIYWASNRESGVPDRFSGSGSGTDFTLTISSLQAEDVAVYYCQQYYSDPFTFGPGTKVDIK
notes: Hybridoma IgG1 (cohort 1); also called 1.42.3
On to B15, for which, in assay [1], the “AML-5 bioassay IC50” value came to 0.02 nM and the “Human CD14+ monocytes bioassay IC50” value worked out at 0.067 nM. Moreover, the “Cynomolgus bone marrow bioassay IC50” value in assay [4] worked out at 0.2 nM. Besides, in assay [2], the “AML-5 bioassay IC50” value was 3 ng/mL and the “Human CD14+ monocytes bioassay IC50” value was determined as 10 ng/mL. Also, in assay [3], the Kd was 1.6 nM, the koff came to 0.00107 s⁻¹ and the kon came to 660000 M⁻¹ s⁻¹.

B16: anti-c-fms hybridoma antibody 1.30 (antibody, IgG1, V domains shown)
VH: B15 VH
VL: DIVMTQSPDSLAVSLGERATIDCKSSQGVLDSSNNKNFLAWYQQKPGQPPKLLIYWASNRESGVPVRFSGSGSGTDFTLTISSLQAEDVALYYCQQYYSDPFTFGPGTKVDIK
notes: Hybridoma IgG1 (cohort 1); also called 1.30.2; 1.30.3
Regarding B16, in assay [1], the “AML-5 bioassay IC50” value was 0.04 nM and the “Human CD14+ monocytes bioassay IC50” value turned out to be 0.067 nM. Further, the “Cynomolgus bone marrow bioassay IC50” value in assay [4] worked out at 0.267 nM. In assay [2], the “AML-5 bioassay IC50” value stood at 6 ng/mL and the “Human CD14+ monocytes bioassay IC50” value was determined as 10 ng/mL. In addition, the “Cynomolgus bone marrow bioassay IC50” value in assay [5] is 10 ng/mL. Moreover, in assay [3], the Kd turned out to be 3.4 nM, the koff was found to be 0.0014 s⁻¹ and the kon was 406000 M⁻¹ s⁻¹.

B17: anti-c-fms hybridoma antibody 1.2 (antibody, V domains shown)
VH: B15 VH
VL: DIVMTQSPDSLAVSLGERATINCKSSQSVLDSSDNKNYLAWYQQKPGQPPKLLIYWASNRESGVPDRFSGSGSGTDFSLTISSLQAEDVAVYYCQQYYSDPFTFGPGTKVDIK
notes: Hybridoma IgG1 (cohort 1); also called 1.2.1
Regarding B17, in assay [1], the “AML-5 bioassay IC50” value came out at 0.006 nM and the “Human CD14+ monocytes bioassay IC50” value is less than 0.007 nM. Moreover, the “Cynomolgus bone marrow bioassay IC50” value in assay [4] came to 0.04 nM. Moreover, in assay [2], the “AML-5 bioassay IC50” value came out at 0.9 ng/mL and the “Human CD14+ monocytes bioassay IC50” value is less than 1 ng/mL. In addition, the “Cynomolgus bone marrow bioassay IC50” value in assay [5] is 6 ng/mL. For the same molecule, in assay [3], the Kd worked out at 1.4 nM, the koff is 0.00113 s⁻¹ and the kon was 817000 M⁻¹ s⁻¹.

For the origin of these results see patent US20090155164A1 (Amgen, published 2009).
